Experimental data from the supplement of paper PMC7877785.
± gives the uncertainty stated by the source.

Assay: self-splicing fitness, log relative to wild type (ln ratio); higher = more splicing; Tetrahymena group I intron in knt gene, E. coli kanamycin selection, DiMSum; sequences stand for … in CUCUCU…GGAGGGAAAAGUUAUCAGGCAUGCACCUGGUAGCUAGUCUUUAAACCAAUAGAUUGCAUCGGUUUAAAAGGCAAGACCGUCAAAUUGCGGGAAAGGGGUCAACAGCCGUUCAGUACCAAGUCUCAGGGGAAACUUUGAGAUGGCCUUGCAAAGGGUAUGGUAAUAAGCUGACGGACAUGGUCCUAACCACGCAGCCAAGUCCUAAGUCAACAGAUCUUCUGUUGAUAUGGAUGCAGUUCACAGACUAAAUGUCGGUCGGGGAAGAUGUAUUCUUCUCAUAAGAUAUAGUCGGACCUCUCCUUAAUGGGAGCUAGCGGAUGAAGUGAUGCAACACUGGAGCCGCUGGGAACUAAUUUGUAUGCGAAAGUAUAUUGAUUAGUUUUGGAGUACUCGUGGUCG
Outline: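 Pooled colonies went to amplicon sequencing on an Illumina HiSeq 2500 after six replicate transformations. The plates were LB agar with 100 μg/mL carbenicillin, 50 μM IPTG and 0.2% rhamnose, with or without 25 μg/mL kanamycin, incubated overnight at 37°C or 30°C. The E. coli BL21(DE3) library had all eight P1ex-region intron nucleotides randomised, the intron placed in the knt kanamycin-resistance gene on pET-22b(+). DiMSum fitness is the error-weighted combination of replicate fold changes, kanamycin against none, normalised to wild type.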

Sequence	self-splicing fitness (ln) (30 °C)	self-splicing fitness (ln) (37 °C)
UUGCAGCAAUAUUACGCUGA	-3.27 ± 0.26	-1.68 ± 0.17
CCUCAGCAAUAUUACGGACC	–	-3.01 ± 0.31
CGGGAGCAAUAUUACGGUCC	–	-2.32 ± 0.24
AACUAGCAAUAUUACGCCGG	-1.63 ± 0.14	-1.19 ± 0.17
UCGAAGCAAUAUUACGUAGG	-1.42 ± 0.08	-1.61 ± 0.1
UGACAGCAAUAUUACGGUUU	-1.07 ± 0.059	-0.226 ± 0.073
CAACAGCAAUAUUACGGUUU	-0.644 ± 0.045	0.183 ± 0.056
CACUAGCAAUAUUACGUGCU	-3.69 ± 0.2	-2.55 ± 0.15
GGAGAGCAAUAUUACGUUCU	-3.27 ± 0.25	-3.5 ± 0.39
GAGCAGCAAUAUUACGCCCC	-2.24 ± 0.47	–
CUAAAGCAAUAUUACGCUGA	-3.03 ± 0.18	-2.95 ± 0.29
UCUCAGCAAUAUUACGGACC	–	-2.13 ± 0.34
GAGAAGCAAUAUUACGCCAU	-2.68 ± 0.38	-1.87 ± 0.35
CAGUAGCAAUAUUACGCUCC	–	-1.31 ± 0.4
CGCCAGCAAUAUUACGGAAU	-2.95 ± 0.2	-2.05 ± 0.21
AGAUAGCAAUAUUACGAUGC	-2.02 ± 0.15	-0.736 ± 0.16
CUACAGCAAUAUUACGAGUC	-3.63 ± 0.24	-3.18 ± 0.38
CUGAAGCAAUAUUACGCUCG	-0.21 ± 0.086	-0.613 ± 0.087
GUACAGCAAUAUUACGGUCU	-0.535 ± 0.084	-0.00413 ± 0.11
GGUCAGCAAUAUUACGUGUA	-0.892 ± 0.071	-0.855 ± 0.082
UACAAGCAAUAUUACGAACC	–	-0.357 ± 0.23
CUGUAGCAAUAUUACGGAGG	-4.1 ± 0.27	-2.64 ± 0.26
CAUCAGCAAUAUUACGCAUG	-2.03 ± 0.11	-2.23 ± 0.13
GAUGAGCAAUAUUACGACAA	-2.95 ± 0.31	–
CGCGAGCAAUAUUACGCAUU	-2.71 ± 0.18	-3.29 ± 0.35
AUCAAGCAAUAUUACGUCCU	-0.37 ± 0.088	0.533 ± 0.12
CGCGAGCAAUAUUACGGGCU	-3.12 ± 0.21	-1.17 ± 0.24

Sequence	self-splicing fitness (ln) (30 °C)	self-splicing fitness (ln) (37 °C)
AUCUAGCAAUAUUACGGUGA	-1.75 ± 0.11	-0.608 ± 0.13
CUCCAGCAAUAUUACGUGAC	-3.38 ± 0.15	-2.98 ± 0.3
CUAUAGCAAUAUUACGAUCA	-3.08 ± 0.33	0.388 ± 0.31
AAACAGCAAUAUUACGGAGC	-3.7 ± 0.28	-2.75 ± 0.22
CAUUAGCAAUAUUACGACGU	-1.47 ± 0.12	-0.0623 ± 0.14
AAUAAGCAAUAUUACGUGGU	-3.77 ± 0.17	-2.63 ± 0.14
GAACAGCAAUAUUACGAUGA	-0.145 ± 0.077	-0.155 ± 0.081
GGUGAGCAAUAUUACGUGGG	-3.2 ± 0.23	-2.09 ± 0.23
UCCGAGCAAUAUUACGGGGC	-4.28 ± 0.23	-2.8 ± 0.17
CCCUAGCAAUAUUACGGGCG	-1.68 ± 0.089	-0.597 ± 0.1
UGGUAGCAAUAUUACGUAGC	-1.3 ± 0.2	-0.833 ± 0.27
GGACAGCAAUAUUACGGCGG	-2.64 ± 0.13	-1.52 ± 0.13
ACUGAGCAAUAUUACGGGGG	-3.19 ± 0.16	-2.17 ± 0.17
ACGAAGCAAUAUUACGGCCC	-1.25 ± 0.2	0.0496 ± 0.26
GGGCAGCAAUAUUACGAGUA	-2.78 ± 0.42	-2.53 ± 0.33
AGGGAGCAAUAUUACGAGUA	-2.7 ± 0.31	-1.76 ± 0.2
CUUUAGCAAUAUUACGGAAG	-3.17 ± 0.19	-2.8 ± 0.23
ACUAAGCAAUAUUACGAGUC	-3.83 ± 0.42	-2.73 ± 0.2
CAGAAGCAAUAUUACGCCCU	–	-1.83 ± 0.43
CCGCAGCAAUAUUACGGACU	-3.14 ± 0.17	-2.31 ± 0.25
UCGGAGCAAUAUUACGGGGG	-2.73 ± 0.22	-2.32 ± 0.3
AAGUAGCAAUAUUACGCUAU	-4.06 ± 0.35	-1.9 ± 0.17
CGACAGCAAUAUUACGGAAA	-1.98 ± 0.21	-2.2 ± 0.18
AUGAAGCAAUAUUACGGCGG	-0.365 ± 0.083	0.476 ± 0.11
UGGCAGCAAUAUUACGAUGA	-0.639 ± 0.12	-0.971 ± 0.14
GACGAGCAAUAUUACGAGGA	-2.28 ± 0.28	-2.66 ± 0.36
GAAAAGCAAUAUUACGGGCA	-0.677 ± 0.086	-0.191 ± 0.093

Sequence	self-splicing fitness (ln) (30 °C)	self-splicing fitness (ln) (37 °C)
ACUAAGCAAUAUUACGAUAC	-2.39 ± 0.21	-1.29 ± 0.22
AGGGAGCAAUAUUACGGGUA	-3.37 ± 0.21	-2.64 ± 0.17
UUCCAGCAAUAUUACGCGUG	-1.43 ± 0.069	-0.516 ± 0.073
UAAGAGCAAUAUUACGAGCG	-3.12 ± 0.35	-1.54 ± 0.26
GAUCAGCAAUAUUACGCGUA	-0.39 ± 0.095	-0.283 ± 0.14
AACAAGCAAUAUUACGUACG	-1.65 ± 0.082	-0.628 ± 0.094
AGGAAGCAAUAUUACGCGAG	-1.55 ± 0.13	-1.31 ± 0.15
ACGAAGCAAUAUUACGGGUA	-1.72 ± 0.25	-2.08 ± 0.17
GGAGAGCAAUAUUACGGAGU	–	-2.68 ± 0.31
GAGGAGCAAUAUUACGAGGG	–	-1.96 ± 0.41
UCGAAGCAAUAUUACGCCGA	-0.786 ± 0.25	-1.16 ± 0.28
AUGAAGCAAUAUUACGGUGG	-1.87 ± 0.069	-1.92 ± 0.12
GACAAGCAAUAUUACGCCGG	-2.63 ± 0.32	-1.92 ± 0.28
UAUCAGCAAUAUUACGCCAU	-1.73 ± 0.27	-1.55 ± 0.28
CAGAAGCAAUAUUACGUUAC	–	-2.72 ± 0.2
AGGGAGCAAUAUUACGGACA	-2.85 ± 0.35	-2.56 ± 0.29
UGACAGCAAUAUUACGUAGG	-1.78 ± 0.079	-1.31 ± 0.11
ACGCAGCAAUAUUACGCUCC	–	-0.96 ± 0.18
CGUUAGCAAUAUUACGACCA	-0.453 ± 0.17	-0.925 ± 0.2
UGGAAGCAAUAUUACGAAUU	–	-1.99 ± 0.36
UCCCAGCAAUAUUACGGUAG	-2.7 ± 0.12	-1.45 ± 0.11
UUGGAGCAAUAUUACGCUGA	-1.98 ± 0.17	-1.5 ± 0.16
GAACAGCAAUAUUACGCGCA	-0.367 ± 0.06	0.0257 ± 0.081
UGUGAGCAAUAUUACGACGA	-0.898 ± 0.14	0.278 ± 0.14
AGAUAGCAAUAUUACGGGAU	-1.24 ± 0.19	-1.21 ± 0.16
AGUUAGCAAUAUUACGAUUA	–	-0.435 ± 0.33
